The record followed here is the NTF2 design screens of Basanta et al. (2020).

A short description of the data set: protease stability score; higher = more stable; yeast display proteolysis, trypsin and chymotrypsin.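 Also: log10 excess protease needed over predicted unfolded state with 0 meaning unfolded.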

Take “DEEHVRRQAKQVNDILTTGDENKMLEMAPPDAKLEYGDRHVTGREHIRRMVHEQKKQIDDFKIDTYSVSGNEVRVRFVARVNGQEADFEITIVFKNGRIHEIKVDPDALQQMRK”: the protease stability score was 0.256. “DEEHWRKIAEDFMHALRTGDPRTLRKLMDEDVQYVYGDQRVTGHEEAANRFHELRQKVDHVTVKHIEVQGNKVVIDVVMQVNGKEARMTIVIVFENGRAKVLTFDPEQIKKLEG” gave a protease stability score of 1.23.

For the sequence “DEEIEDMIRKLIHAIRSGDEKKIKDNFDKDVDVDVGDKTLHGREHLTKRIAETRRQLKVRITSLHVHVRGEQVRVQVTMERTVNGRPQRHHNVFELQVHNGRVKRVSVKSDG”, the protease stability score was determined as 1.08.

The sequence “DEEIERRVENRLKALEEGDEDKVRDNVDPNVRIHVGDKVWHGREHARDFARQQKEHARRKVDEYSVRVNNGKLSVKQRFKEDRNGQPREDHQQYSADIHNGTLKDMTVTKDG” came in with a protease stability score of 0.608. Consider “DEEIKRHIKEMMEAISHGDPDQLRRLFDPNVDIRVGDKEITGMEEYLHQLKHKLDSAEFEYKHYEVKVRNGSVRARYEYIVRINGRPNSVTAEVEIKMTNGKAKHAVYRFSDEDKKRLEG”, for which the protease stability score is 0.698. As for “DEEILNKAVEALRVEHQGNRKDLKRMFDPNAKRRVGDKTITGMDNLLKELSDKRRHLNVDVKIDSLHAEGNRVELDVSQRQNTNGQPSEFRAKIVITVKNGRMVDVTIHRTK”, the protease stability score was -0.016. Under “DEEINKQIRTMIESRTHGDEEDELRNADPNAKFRIGDKDYHGKEELKKWVKTQHDQAHVEFIIRSVRVHGNKVSMDMQVVLNVNGRPETIDASMSAEVDNGRFKRIDIHLDPDRVRTALQ” stands 1.16; under “DEEINTIAEEFMKAFQHNNPDKMRNLADENAQFRIGDDKIHGMETYAKEVKKENREQRVEFQIKDLKVQGNTVDMDVSFEVERNGQPHRFEVKLHFNFHNGKLKTLQWNTDG”, -0.078. For “DEEIQKLIDDALKAYERGNEDQQAELFDENARVRIGDQTLHGREDLKEHLKRVKDHINFRIESYDVKVHNGRMHATLTLVMQIDGQPDQWSVHLRADVNNGRIKHFEMDMDPEKQRELTK”, the protease stability score was -0.044.

In turn, “DEEIRDEIKKYFKALETGDPDKMREMFDPNAKVQVGDKVYHGMSEAARHWVRRAEKIRIEIQDLNIDVHGEDVVVEQVLVEDKNGRPQRKTERLTMDVEDGRVKRAHRHSVK” gave a protease stability score of 0.186. In the case of “DEEIVELIKKVLEAIEEGDETRLKKLFDPNAEFEIGDKKLHGMENAAKEWRKQRQQMEIRIKSVHFEVRGERVIVKFKVEYDHNGRPSTMTVHIVALAHNGKMTYFSQKVTQ”, the protease stability score turned out to be 0.826.

On to “DEEIVKLLKRLIKAEKNGNPDEIRKNLDPNVRYVVGERTITGREEFVRDQQRRDDQMRVEFQSVQLRQKGDKAVIHQQAVYRHNGRPKTNHQHISIQAKNGKVKDQKVEVKE”, for which the protease stability score came to 0.069. Under “DEEIVKLVEEQARAEKTNDDKRLNELFDKDAKVDVGDKSYHGTEELHKLVHRTMHRMRFDLRTYRIDHEGDRAVMNYNLVFDINGRPDHYHVIFRAHMHNGRIKHQSVSVDPEQKKRFDS” stands -0.023. With “DEEKAKHRVEEFTQLLQENDWDHLANMADENARVQVGDQVYDGRKDIERWAKQVKERVDNVTVKEMSVSGNKMNANVEFQINGVTVRATIEIDFHNGKAKHMRVDPDVVRKQSR”, the protease stability score turned out to be 0.727. “DEEKAQRLMKTLMDYIKNGNADKAQQMLKEGGKVKFGDEEVEGPEEMKKYVKKFKDKGIETHYKEEKFEGNTATVHTEAKLGNAKVEFEAHYEAKGDKVVRAEVKYDEDQYEKFKKS”: the protease stability score is -0.286. In the case of “DEEKATEQAKEAIKALHTGDPRTMVEMLDKDARLRVGDNEYKGRDKVRNAMEEFTKRADSVRVDSVSVHGDKAVIHFKVRYNGQTIEVVLSLSVTNGRIVKAELDYRDEDTLRRLQK” it was 1.11.

Consider “DEEKDEDFARKVLQAVQTGDHDKIKKMADPNASATIGDKTWHGREQLSEAIRRWKEEADRVDVKSVSVQGDRASADMKVQHNGKMTDVRVFVEASNGRLKKLEIDTK”, for which the protease stability score was 1.16. In turn, “DEEKDEDVARQVAHAAATGDTKRLVELMRDNVRFQIGDKTFSGRENLSKAMERIDKHVDHLEVKSIEAHGDTVRADVTMTVNGKTHVVKIEAVVHNGHARELVLHDR” yielded a protease stability score of 0.06.

For the sequence “DEEKDEKIRKWQTNVKHGNEDEIRKNADKDAHVHVGDKQYHGHHRIRKLMTNERRKMRVDQKIETVSANNGRATVIVSATFDVNGQPLTDRENVVLIMHNGKIQEVRVDMDPDLHRQLQS”, the protease stability score was -0.51. For “DEEKDQKLATDLSDVIKTGDKEKMVKMADPNARIIVGDRVYHGREVILRWVRTLRERVDRIQIDSYDARDGKVRIIFQVRFDGRTTKIDLVVQYDNGHAKKIEVREK”, the protease stability score worked out at 0.075.

Consider “DEEKEATKQVSEWIENMKSGDEDRLRELADKNAKVRYGDEEVHGMDQAAERWRNQRQKYDSLEVEVRDLKNHNGQVVVDQVERFNHNGKTDQRRVIITMERRPNHFVVQEVVQP”, for which the protease stability score is -0.331. In turn, “DEEKEDKLLLKFARVVLQNNPEDLTRLMDPNAHLEVGDQTWHGREQVSDVLSKFAKRVDEVEVEDYDKRGNDLKVVMTLNINGKNIKVNLTFVVSNGRVTNVRLDPEAQKKIEK” had a protease stability score of 0.37.

In turn, “DEEKEETTVEKLAKAVNTGDPDQIEDLADKDVRATIGDRQVHGREEMDRNMKEWEDKIDHLELKSVDVQGESAHANLDQRHNGRHVRMVAIAHVENGRAVEVVFRDQ” returned a protease stability score of -0.157. On to “DEEKEFHKMIKELDKVAKRNDEQSVQNLADKDVEVTYGDKSYHGREVLRRMFRDQLTRADKVRITMKSYTVRGDKAHAVLNVVLDHNGRQEHIDVKVTAQADNGRVRLKHVNIP”, for which the protease stability score is -0.039. Take “DEEKEKEAADRASTNDPDEFRKMVDEDARVVVGEKQWHGREKVQKFYEDQKKRIDHLRVEHVDKDGNRVVITQFYQVNGVRVHAIFIITVHNGRLKMRSVQFTDEHAERRMKKAVS”: the protease stability score stood at 0.528.

For the sequence “DEEKEKRTARQVADVLRSGNPDEMMKLADKDAEVRVGDHVLHGREEISKLMHELRRRIDHLEIKHVEVDNGSVNIVYVVRHNGKTEVVVLHVDFHNGKIREMTVRSG”, the protease stability score turned out to be 1.36. As to “DEEKENRDIQTLMKNMVTGNEQEVMKNADKNVNLVVGDKTYHGREKIREFVRQLRERADHQEIKSVHATNGRAQADMVVNVNGKDIRFTVTMEASNGKAKHIQFDPNFFRKIQS”, the protease stability score was -0.079. On to “DEEKEREMFKEFLNAFKSGDPDKLRKRMRQNVTLVYGDKSLHGRERAAKWFSELVKRVDHIEIESVKTDENHFDADVHLNVNGQNVIVHIRAKVENGRIVKVQYEYRDESQRRKLEK”, for which the protease stability score stood at 1.18.

For the sequence “DEEKHAESAIHHIIKVFKENNPDQFRRNADPNVKVNVGEHEVDGRDDLAKYMVDEANRVDHASYEIVHLDVRGDKARARVRVIVKFDGQERKYEYVFVFVEQNGEVVITKVQHQ”, the protease stability score came out at 1.1. Under “DEEKHAKEMADRFRKILDNGNEHSVEKMFDENARMSVGDRTIHGREKIAKKLITDVRRVDHLQVKVLSYHAHGDKIDLKVQQTLVVNGEDETRRYQMHLTRVNGRFVAVDAREQ” stands -0.07.

As to “DEEKHAKEVLDKFLKIAQEGDPKKMHELVDPNATFQVGDKEVHGRESAIESLQKFLEKVDHMRLEITEVRVRGNKFNIVAKLRADINGQKVDKRLIIVFTHHNGRLQMSHLRMD”, the protease stability score came out at 2.34. In the case of “DEEKHDDFARKLVRAVQSNDFRQQEKMFRQDVRMRVGDKEVHGREQFRDWLRTLDEEVDRYEVKSVTAQGDKVKIVAVFRINGKQFTLTVTIHVSNGKAVNMRINPDQQRQQER”, the protease stability score is 0.104. Take “DEEKHKQKLRKFAKDFVEGDPEEISKNVDEDVKVHIGDQDVSGREEAMKVIEEIKKRADHIQITSVEASNGRLRINVVIQVNGRNVTAHVTVDADNGRVKKVTMDPDQVRKLKS”: the protease stability score amounted to 0.827.

For the sequence “DEEKIAQKAVDRVEEAMNRGDPDTMKHLLDKDARITYGDQQYHGREEVIKFMDEFVENVDHVNVEFKEVEVHNGRARASARVVYTHNGQSHDVKLEVVFLIQGDEVRLTHLHYG”, the protease stability score amounted to 2.11.

As to “DEEKIARHVVRTWMENLKTGNFKEIEKMIDKDVEFEIGDKTVTGREEVRKRRKHEKDQADHIEVQVHDVRARGDKVNIDVVMEINNNGRTTTRRFVLVLSIHNGHAKIKMVTQG”, the protease stability score was found to be 1.09. For the sequence “DEEKIDRLLHEVVKAYLSGHSEKLKKLLKEDGQLHALSQTYHGKEQVMKVAEEFKRYGVELQIQDQKTEGDTLKVKAQAHKGGTTWEFEVKVKADGGKADELTIKVSEEAHKMIQRG”, the protease stability score is -0.298.

For “DEEKIKQLLQKMIQYYVSGNKDHLKQLGKDDVQLHAADQTYHGLDQLLKVAEQFKKYGVKLEVKDVKVDGNTIHADVEVTMGGTQWTFKVTAEADGGKVDKVQFDVSEEAKKRIQKG”, the protease stability score stood at 0.959.

Take “DEEKILKIIDRAVKAIQNGNEEEIRKLGMPNGEAQVGNDRNHGQDALVVMVKMYQKLGNEFEYKEKREEGDQVTTVVQVTFGGTTVEYEVNVQAEGGHIKRWEVRVDETFMKHVEKS”: the protease stability score was -0.125.

For “DEEKILQDLIKTYQDLAKTNDFESMAKEADEDAHVNIGDKEVHGRESLNKHFRQLQKEVDHVEVDVRDYRVHGDKFEIKFVVNNQRDGQTDRKTVRIEYVQNGDKVRAKSFTTG”, the protease stability score was -0.176.

“DEEKILRVLKEVVKAIQNGNKEEVRKKGKPDVEVQLADERNRGVDQLVRLAEFDKKLGVQFEYKETRQKGGKMTTVVEVTLDGTTIRYEVHVEAEGGKVKRWEVRMDKKFIRIAQES” came in with a protease stability score of 0.077. In the case of “DEEKKANHFNKEFDRNVQRNNETELRKMVDPNARVNVGEQNYSGRNKMVKIITDWLRKYDKFTIDVRRIDVHGNRIFIDFEMVVVSNGQRRTTEIRVVVEEHNGRLHIRVWEIT” it was 0.516; in that of “DEEKKARQALKNLVQNLRTGDEDELRKMIDKDATVRVGDEEIHGRERIAKTLLEEVKEVDHFEQHVRSITRDGDKLVIVVTQKNNHNGENQHRTVTIWIHERNGELLIQSMEYK”, 0.504; in that of “DEEKKARQLLKRWLRAVSQNDPKKLSEQMDPNARVEYGDKELHGMHQIENWLREQLKHIDHIEIDVKDMTVNGNEAQVQFRFVNRHNGKEDTKEARMQAELHNGTVKVRRIRYS”, 0.389.

In turn, “DEEKKARRWFESFIEVFRSNDPDQAKKLADPNVRAEYGDKHYHGREEFMKHFITLAERVDHVDIELHSLRIDGNRIVMNMRYRLRYNGRTESNEVTVILVIKNGKLHIQEVREG” yielded a protease stability score of 1.41. Under “DEEKKDKASEMVRAEQKNNPDKVNELADKNAKFNIGDKRIHGREHLKKTIETENREARYDIDEVDVRAKNGKVDVKMSMRVRHNGRPDRFHVEQTVRFNNGKAQEVTRHKKK” stands -0.299; under “DEEKKRRVAQKIAKLVQTGDPRDVETMMRDDVRANYGDKEYHGRENVSTFADRQVKKVDHRHIESVKNSGEQLVVDMRFVINGHNVRFRISFEFHNGKIKQANFDPKAIEHQDS”, -0.176. As to “DEEKLAENFLETMQNIAREGDEEKMADLFDPNAEIQVGDKSYQGREDVLELNRREFERYDHVRIDVKRFSVKNGQLDAEMSVTFSVNGKTDSHDQRLRATLHNGRLKAKHRTNG”, the protease stability score was 0.476.
